According to the DeepSol protein solubility set:

Assay: soluble on expression in E. coli; label from the status in PepcDB or PDB records

Sequence	soluble on expression in E. coli
MASLCNSIIGWIKNDKEVRLRKRGDTSRRDAVEAGFEPRDTVPRCHSTQSLRDVQRVRSYNNSQFQASDLSLNPNGSIRAACDSTSGSVAPTAVVNPARNHVISHRQQHHTSYEKDLIPHHNIDVDRRRSLQALNGSSALYQLNNGGSPNGVRSQFSPSDLSIHTPVHHVGSRVRVSSVNQICDSNSAPQFSIDQRRSVHNIGNPVRNSFVDGIKTTSTPKNQIAVAPLAHKSRHLSESRDEMRGGAERRGSGGQMNLPAYTNYLIRHSGEERLVDGPVTNASDARIAYLEKRIRELELTQKEQSSHSTPSQSRHSSSKSSHFNGSSNLSTSEQLRLQEMSDELANKDRKVTSLESKLLKAYQRIERLNEEYDGKIKNLMYDSERARDDLTRCVDKIQQLENELDETRAAVQNGDHANEQEYHELRDKIWKQERELQESRTLLTRLREKEAEFERMRSEKGYLELKNENLNKKLEAKKRAVEELERSVSTLRLEQTICQQSCSSGSTPLADEMEIMSDIRPSLARPYTKAHSTLGSHNMSPLSHSKSSGLTKSFSNFALNSSKQRDDITANMSRSIREQNRHITMCRAMVVCLKDTVDRMARGENPDVARLLGVKLNVMSESEMEDDEDHEADASQPFSMMSAESALSKQCGKLADLDKDLDTIRCQLADWHGQTNAEGDGDRDVCRVQ	not soluble
YETQSREKQTRQQHEHMLMIVSNLYEETVHLKKTLKTTEKVTNDSYQLYREMKGKDVQLSGRILRLAGEIHEVKKDNQRIFAGLSKLISNESLRDYMRASDLLQLVIRMNEKYAEALGKQIDFYCSIEGEHDEYHVFIVLSIINNLTANAVEAMDEEGMVSLRLRKPNESMVEFQVEDNGPGISEKIGDIVFDPGFTSKYDEFGTPSTGIGLSYVKEIVTELEGDITFDNQQRGVVFAIRLPVRHLIQKG	not soluble
MPSGGQRKHTISNKTRKRPGKDLDQIHEDLKPEKAAKLLQQEIDYDLPGNGQFYCIECERHFVDEKTRQLHRKTKLHKNRVKTLKEVPYTQAEANAAGGSGFFPAITLKTRVELPKQPEIPIPVVAET	soluble
MGKKPVVIGVAGGSGSGKTSVARAIYDHFGDHSILVLEQDFYYKDQSHLPFEERLKTNYDHPLAFDNDLLIEHIHKLLRYEPIDKPVYDYTLHTRSSDVIRVEPKDVIIVEGILVLEDERLRNLMDIKVYVDTDPDIRIIRRLIRDMKERGRTFDSVIEQYLSVVRPMHNQFVEPTKRYADVIIPEGGQNVVAIDLMVAKIRTVLEQKAVL	not soluble
MDDSMDYPDRDGDDLDQFQGTARSQVVQNQPHDEEVNLSESESFAGADEPPAAPRDASLIESHDMDEGPAAPARTLSPTGYEAGKHAPGGIANSDEAPPGAYNAQEYKHLNVGEDVRELFSYIGRYKPQTVELDTRIKPFIPDYIPAVGGIDEFIKVPRPDTKPDYLGLKVLDEPAAKQSDPTVLTLQLRQLSKEAPGAKADMVGRLEHTDENKAKKIQQWIASINDIHKAKPAATVNYSKRMPEIEALMQEWPPEVETFLKTMHMPSGDVELDIKTYARLVCTLLDIPVYDDPVESLHVLFTLYLEFKNNPIFRQHMEMENKLDGMSGGGGGMMGGGADVLGL	not soluble
NSVLFPCKYASSGCEITLPHTEKAEHEELCEFRPYSCPCPGASCKWQGSLDAVMPHLMHQHKSITTLQGEDIVFLATDINLPGAVDWVMMQSCFGFHFMLVLEKQEKYDGHQQFFAIVQLIGTRKQAENFAYRLELNGHRRRLTWEATPRSIHEGIATAIMNSDCLVFDTSIAQLFAENGNLGINVTISMC	soluble
AHHHHHHGSRELVEIIKGIGIEGAKEVEEKVDRQFYALQYLFRHQDPEMFIKLVIANSLVSYQLTGRGEDWWWEFARYFSGREVDSIWKAYGEFLPKSKNNRRLIEAKLNRIRKVEGFLSTLTLKDLEGYYKNMKMLWKALIKIMGSREDSKTIVFTVKMFGYASRIAFSRFIPYPMEIPIPEDLRIKSVTSKLTQEKPTKFWMKIGQESGVPPLHIDSLIWPLLGNADLTPLDIELRNKLMKLTELLGL	soluble
KAAPAEPATGPFNVSATSPVTGQNYQMSCTAHDHVMRCSGGNNAIVLLTPNPTGVVEEKTYEYALEGTVVLKNTAEVLEGLKPPNNDNPNNEYILLWFDNPMDVAGKHAGNRDQLSTKNVRYLSLGKKETTQYGPLPDTTGPWRQYVGKRIRLHVNSDNMRYPSDTGMPLGALRLEEAPDIRIEEL	not soluble
MAHHHHHHMEKNQNDKSNKNDIIHMNDKSGNYDKNNINNFIDKNDEHDMSDILHKINNEEKKYEEIKSYSECLELLYKTHALKLGLDNPKKLNESFGHPCDKYKTIHIAGTNGKGSVCYKIYTCLKIKKFKVGLFSSPHIFSLRERIIVNDEPISEKELIHLVNEVLNKAKKLYINPSFFEIITLVAFLHFLNKKVDYAIIETGIGGRLDATNILTKPEVIVITSIGYDHLNILGDNLPIICNEKIGIFKKDANVVIGPSVAIYKNVFDKAKELNCTIHTVVPEPRGERYNEENSRIALRTLEILNISIDYFLKSIIPIKPPLRIQYLATEQIQHIKKKFSPDNLEHNVQYPLAVILDVGHNETAIDRLCTDINYFHKGQNIRICISITKPRNLSVFHPFIAQFGDTLKDIFYLPSLNERTYDFEEIVEMLNNEEEIKNEIKELILSSSKKVGKWLAHEKQGNINEEDALKLYKRGCIPLIIKNAFLECCKDNSILLVCGTFFVFDEVLNVFDIHSDMQDTIFMNEPSLV	soluble
MSLRGNFFSFVRISGQSMSPNLVNNQIVLLEKKANVSRGTVIVSKTNNLQKQNTGVQDIALRVVALPGDKVNYKKGQLYVNGKKVNQSYISSQVKTETGMSIDTGWSINSLSLSKNWPKSQRNIKKVQKNSYFVLADNRIDPVDSRQYGLIKKRQIEGVVKVFFLGNKNKDEGHHHHHH	not soluble
MSLMTDDIDQRLINALMADSRLSLKALAQVSGLSAPSVAERLRKLEERGVIRGYTLDVDPRCFGYQFQAIVRIRPLPGRLHEVERQIQDIAEFTECDKVTGDDCFIARLQVRSMEQLDTLLDRINGYAETNTAIVKKSPVKRRLPPMT	soluble
MTIKWIDWVKQIQSIAQAGLTYSKDVYDIERFQQLRDISISMMSHYTKTDWEVVEKLFASETGYQTPKVDIRAVVFQNEKLLFVKEKSDGKWALPGGWADVGYTPTEVAAKEVFEETGYEVDHFKLLAIFDKEKHQPSPSATHVYKIFIGCEIIGGEKKTSIETEEVEFFGENELPNLSIARNTEDQIKEMFAYMKDPQKEKLID	not soluble
MSLKLYYQQAMLLPKTKEILLRWEGVLSAGQRKASNAVVINLKGKMDMLLWAVAGSGKTEMMFEGMDWALRQGFRICVASPRVDVCLELLPRLKEAFPSMDIVCLYGDSKDNYQGEQFVIATTHQLIRFYETFQVIFIDEVDAFPYAKDPFLEYAVMKARTKEGSTIIITATPEKKWQEECVKGKRNFVKIPGRYHREGHHHHHH	soluble
MKIGFIGVGKMASAIITGLKKTDFELIISDSSLKAGQDKAEALGVAVAQSHQELVDEVDLLVLGVKPQVLASVLNPLILTKPILSMAAGTSLEYLDKLSQADLPIIRIMPNLNAKILQSSTAICRNDKVSDQLFAIAKQITDSFGTTFEIAEKDFDTFTALAGSSPAYIALFIEAMSKAGLKHGFPKDLAFKIVSQTVLATTSNLIQGQEKPNDLIDKVSSPGGTTIAGLLDLEKTGFTASTISAIDATIDKSKNMLEHHHHHH	not soluble
MRTLPSVLAAHLASGATTLCFAWRVTRRDGLVTGFTDHDRDLVVDGVTCKAASGISGSQSTLASGLSVTGAEVSGALSHDALSEDDLAAGLYDGAAIDHLLVNWQDPAQVLLLRRGTIGEVRAQDGVFTAEIRSLSDGLNQTRGRLLSSSCDADLGDARCGVDLTLPAHAASATVVAVEGALSLRVTGLSAFAQGAFARGRARLSSGANAGFVTEVKAHLVDAEGVLLRLWQRPPFAVAEGDGITLTAGCDKQLATCRDRFSNALNFRGFPHMPGNDFVIAVAIAGEGGYDGSLLE	soluble
MQGVLAGLPSGIPGIGLEIEGAVQHAPQPGRHSIRCSLKVNHRIDERAQYHLFCTSKSANTTCPKGPSRVLCRDIFDIFDYRNFSMPRANEIKKGMVLNYNGKLLLAKDIDIQSPTARGAATLYKMRFSDVRTGLKVEERFKGDDIVDTVTLTRRYVDFSYVDGNEYVFMDKEDYTPYTFTKDQIEEELLFMPEGGMPDMQVLTWDGQLLALELPQTVDLEIVETAPGIKGASASARNKPATLSTGLVIQVPEYLSPGEKIRIHIEERRYMGRAD	not soluble
MGELNKSARQIVEAVGGAENIAAATHCVTRLRFALIDESKVDQEMLDQIDVVKGSFSTNGQFQVVIGQGTVNKVYAELVKETGIGESTKDEVKKASEKNMNPLQRAVKTLADI	soluble
MSLNARSYLEQQLTGQNANAANALALAITQSQADKAMAETLINATFDQGYFHHIRWQGADGKVRVDRVNEAVFPAAPGWFRALLPLSPQPGSALVTAGWMQAGEIRVEAALGYAYESLWRGALQTMLWLLGTGLLAGLLGSIDIFKLRRDLQRVVNQARAISEHRFQRMTEPKVPELARVVGAMNQMVERLQSFLGEQSEEVEQLRRERHTDPVTGLPNREALEQAVSSTLAEEDDVRGCLLLLRLAGLAELNQRLGGERADALLVRLAADLEDLAARRKGWMAARLRGADFAVFCPELDMDGGRQLAETLCEQLALYRQMGLSDRDGIGHIGVCGIVQGDGLASLLARASQALAEAEAAGDNQWRVDDGAGPDVGSEWDWRELIEAACREHSEGHHHHHH	soluble
MASAIGKNFQSGARECSTFEKIKTELSAAGLSSGAIDGILKIAATYKPKEGEKPDLAQAMVTIGKLFAELETFIKTQPESDQTIYHAIIEKKKAELVAHGIKF	not soluble
MVGLADVAVLYSGGKDSNYALYWAIKNRFSVKFLVTMVSENEESYMYHTINANLTDLQARALGIPLVKGFTQGEKEKEVEDLKRVLSGLKIQGIVAGALASKYQRKRIEKVAKELGLEVYTPAWGRDAKEYMRELLNLGFKIMVVGVSAYGLDESWLGRILDESALEELITLNEKYKVHVAGEGGEFETFVLDMPLFKYKIVVDKAKKVWEPCTSSGKLIIEEAHLESKLEHHHHHH	soluble
MRNQELARIFEEIGLMSEFLGDNPFRVRAYHQAARTLYDLDTPIEEIAEKGKEALMELPGVGPDLAEKILEFLRTGKVRKHEELSRKVPRGVLEVMEVPGVGPKTARLLYEGLGIDSLEKLKAALDRGDLTRLKGFGPKRAERIREGLALAQAAGKRRPLGAVLSLARSLLEAIRALPGVERAELCGSARRYKDTVGDLDFLVASREGERAVEGFVRLPQVKEVYAKGKERATVFLKNGLQVDLRVVPPESYGAGLQYLTGSKAHSIRLRALAQEKGLKLSEYGVFRGEKRIAGETEEEVYAALGLPWIPPPLREDQGEVEAALEGRLPKLLELPQVKGDLQVHSTYSDGQNTLEELWEAAKTMGYRYLAVTDHSPAVRVAGGPSPEEALKRVGEIRRFNETHGPPYLLAGAEVDIHPDGTLDYPDWVLRELDLVLVSVHSRFNLPKADQTKRLLKALENPFVHVLAHPTARLLGRRAPIEADWEAVFQKAKEKGVAVEIDGYYDRMDLPDDLARMAYGMGLWISLSTDAHQTDHLRFMELAVGTAQRAWIGPERVLNTLDYEDLLSWLKARRGV	soluble
MGSDKIHHHHHHMKLKQSESFKMDAFSMRVGDIEGVELDRLHALSLSVGWPHRAEDWQFLRNVGRGVVVLDEIGRVQGSAMWFEHGADFATVGMVITSPRLQTLGAAQWLMKRIFDKVGGRDLRLNATRAARRLYLSLDFLPEKTVYQCQGIARLETTGGPTDLRDVRALDPSDIPAAIALDAAGFGVRRAALVEKLFVHSAGYGLFKHDKLNAFALCRPFGRGHVVGPVVAESDADAVAVVRPHVADNSGSFLRIDTHMANGDFAAFLSHSGMTVFDTVLTMSMGKRLADFAVNGTVAPVTYALASQTLG	not soluble
